T1: Ebola virus GP, Sudan strain, on VLPs (Ebola virus, Sudan strain, UniProt Q7T9D9 33-676)
T1 construct: also called Sudan NC_006432
T1 sequence: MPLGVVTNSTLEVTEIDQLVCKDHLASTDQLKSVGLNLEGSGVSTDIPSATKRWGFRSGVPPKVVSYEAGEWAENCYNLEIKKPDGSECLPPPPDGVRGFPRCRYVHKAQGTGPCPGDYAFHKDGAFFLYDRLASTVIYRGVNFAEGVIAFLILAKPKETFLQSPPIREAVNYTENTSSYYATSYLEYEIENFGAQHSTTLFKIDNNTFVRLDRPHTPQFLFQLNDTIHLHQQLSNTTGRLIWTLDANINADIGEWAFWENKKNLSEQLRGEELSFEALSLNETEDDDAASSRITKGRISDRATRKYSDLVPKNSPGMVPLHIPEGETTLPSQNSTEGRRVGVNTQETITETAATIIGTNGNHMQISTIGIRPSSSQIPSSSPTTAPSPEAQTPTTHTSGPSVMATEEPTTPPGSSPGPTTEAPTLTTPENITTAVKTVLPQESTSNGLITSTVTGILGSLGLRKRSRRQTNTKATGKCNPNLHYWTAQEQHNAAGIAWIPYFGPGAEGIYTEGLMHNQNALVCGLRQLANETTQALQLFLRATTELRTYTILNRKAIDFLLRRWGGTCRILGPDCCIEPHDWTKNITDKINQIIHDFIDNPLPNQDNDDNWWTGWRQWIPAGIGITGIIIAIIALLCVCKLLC

T2: hCNTFR.mmh (ciliary neurotrophic factor receptor.mmh) (human (printed as hCNTFR), UniProt P26992 23-342)
T2 construct: also called negative control protein; not shown: mmh (myc-myc-hexahistidine) tag
T2 sequence: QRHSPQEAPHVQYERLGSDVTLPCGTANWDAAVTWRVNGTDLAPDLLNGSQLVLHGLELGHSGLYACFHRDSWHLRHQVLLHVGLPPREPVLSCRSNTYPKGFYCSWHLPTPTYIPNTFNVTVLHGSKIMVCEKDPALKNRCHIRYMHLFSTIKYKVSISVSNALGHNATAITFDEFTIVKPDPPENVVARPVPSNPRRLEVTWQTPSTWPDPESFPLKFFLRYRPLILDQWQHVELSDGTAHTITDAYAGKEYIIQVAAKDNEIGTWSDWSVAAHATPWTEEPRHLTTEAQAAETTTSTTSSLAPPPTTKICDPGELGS

T3: Ebola virus GP, Cote d'Ivoire strain, on VLPs (Ebola virus, Cote d'Ivoire strain, UniProt Q66810 33-676)
T3 construct: also called Cote d'Ivoire FJ217162; Ivory Coast
T3 sequence: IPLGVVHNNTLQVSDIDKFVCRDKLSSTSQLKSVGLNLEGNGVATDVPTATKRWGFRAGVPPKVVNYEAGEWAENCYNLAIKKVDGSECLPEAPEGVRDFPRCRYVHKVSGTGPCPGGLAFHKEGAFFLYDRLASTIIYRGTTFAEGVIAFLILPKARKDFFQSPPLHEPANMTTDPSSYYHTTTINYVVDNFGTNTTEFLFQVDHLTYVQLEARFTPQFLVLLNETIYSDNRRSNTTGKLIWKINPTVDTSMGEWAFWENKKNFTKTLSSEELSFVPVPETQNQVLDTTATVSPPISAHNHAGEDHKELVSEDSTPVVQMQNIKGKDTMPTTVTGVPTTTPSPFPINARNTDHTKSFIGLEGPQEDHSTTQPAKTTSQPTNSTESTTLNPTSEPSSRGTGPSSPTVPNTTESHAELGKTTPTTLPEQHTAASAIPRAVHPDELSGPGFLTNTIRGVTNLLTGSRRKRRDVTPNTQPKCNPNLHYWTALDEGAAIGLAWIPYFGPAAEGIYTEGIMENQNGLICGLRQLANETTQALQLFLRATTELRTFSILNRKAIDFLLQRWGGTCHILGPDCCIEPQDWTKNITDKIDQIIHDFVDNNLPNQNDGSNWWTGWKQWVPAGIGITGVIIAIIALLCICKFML


What was measured:
[1] = molecular target: T1, Ebola virus GP, Sudan strain, on VLPs; test: MSD, VLPs coated
[2] = molecular target: T4, Ebola virus GP with a C-terminal polyhistidine tag (Sino Biologicals, Catalog #40442-V08B1) (Ebola virus, UniProt P87666 33-650); test: SPR 25C, mAb captured
T4 construct: also called EbolaGP.his; Ebola virus GP.his

[3] = molecular target: T4, Ebola virus GP with a C-terminal …; test: SPR 37C, mAb captured
[4] = molecular target: T2, hCNTFR.mmh (ciliary neurotrophic factor …); test: BLI, mAb captured, 25C
[5] = molecular target: T4, Ebola virus GP with a C-terminal …; test: SPR 37C, mAb captured, pH chase
[6] = molecular target: T3, Ebola virus GP, Cote d'Ivoire strain, …; test: MSD, VLPs coated

Binder	binding result [1]	Kd [2] [nM]	koff [2] [s⁻¹]	kon [2] [M⁻¹ s⁻¹]	t½ [2] [min]	Kd [3] [nM]	koff [3] [s⁻¹]	kon [3] [M⁻¹ s⁻¹]	t½ [3] [min]	binding result [4]	t½ ratio pH 7.4/pH 5.0 [5]	t½ ratio pH 7.4/pH 6.0 [5]	binding result [6]
H1H17142P (antibody, V domains shown) VH: EVQLVESGGGLVQPGGSLRLSCAASGFTFSSYAMTWVRQAPGKGLEWVSSISGSGTSTYYADSVKGRFTISRDNSKNTLYLQMNSLRAEDTALYYCSRDIYTWNFLSLIGGMDVWGQGTTVTVSS VL: DIQMTQSPSSLSASVGDRVTITCRASQGIRIDLGWYQQKPGKAPNRLIYAASSLQGGVPSRFSGSGSGTEFTLTISSLQPEDFATYYCLQQNSYPWTFGQGTKVEIK	no binding	1.41	2.81e-05	20000	411	6.68	0.000174	26000	66.6	no binding (tested: below 0.10 nm at 300 nM)	0.5	0.5	
H1H17134P (antibody, V domains shown) VH: QLQLQESGPGLVKPSETLSLTCTVSGGSISSSSYYWGWIRQPPGKGLEWIGSIYYDGDTYYNPSLKSRVTISVDTSKNQFSLRLSSVTAADTAVYYCARQFDYWGQGTLVTVSS VL: not shown	no binding	12.3	0.000941	76500	12.3	6.7	0.000469	69900	24.6		0.6	0.6	no binding
H1H17151P (antibody, V domains shown) VH: EVQLVESGGGLVQPGGSLRLSCAASGFTFSSYAMNWVRQAPGKGLEWVSVISGSGGWRNYADSVKGRITISRDNSKNTLYLQMNNLRAEDTAVYYCAKDRGATFGVVILGPPYYGMDVWGQGTTVTVSS VL: DIQMTQSPSSLSASVRDRVTITCRASQSISTYLNWYQQKPGKAPKLLIYAASSLQSGVPSRFSGSGSGTGFTLTISSLQPEDFATYYCQQSYSIPYTFGQGTKLEIK	no binding	7.49	9.44e-05	12600	122	17	0.000383	22600	30.2		0.01	0.03	no binding
H1M17357N (antibody, V domains shown, also called HCAF09D11-13) VH: QVQLVQSGAEVKKPGASVKVSCKASGYTFTSYYMHWVRQAPGQGLEWMGIINPSGGSTSYAQKFQGRVTMTRDTSTSTVYMELSSLRSEDTAVYYCAREIGEAGEVFNYWGQGTLVTVSS VL: DIQMTQSPSSLSASVGDRVTITCRASQSISRYLNWYQHKPGKAPKVLIYAASILQSGVPSRFSGSGSGTDFTLTISSLQPEDFATYYCQQSYSTPPITFGQGTRLEIK	no binding					78.1	0.00184	23500	6.3	no binding (tested: below 0.10 nm at 300 nM)	0.5	0.8	no binding
H2aM17356N (antibody, V domains shown, also called HCAF08C07-09) VH: EVQLVESGGGLVQPGGSLRLSCAASGFTFSSYEMNWVRQAPGKGLEWVSYIGSSGRATYYADSVKGRFTISRDNAKNSLYLQMNSLRAEDTAVYYCARPSSIAALLRNQYHFGMDVWGQGTTVTVSS VL: not shown	no binding	4.4	9.57e-05	21800	121	34.4	0.00025	7260	46.2		0.9	0.9	
H1H17360N (antibody, V domains shown) VH: EVQLVESGGGLVQPGGSLRLSCAASGFTFSSYEMNWVRQAPGKGLEWVSYISSSGSTKYYADSVKGRFTISRDNAKNSLYLQMNSLRAEDTAVYYCARPSSIPALLRNQYHYGMDVWGQGTTVTVSS VL: not shown	no binding									no binding (tested: below 0.10 nm at 300 nM)			no binding
H1H17358N2 (antibody, V domains shown) VH: EVQLVESGGGLVQPGGSLRLSCAASGFTFSTYEMNWVRQAPGKGLEWVSYSSSSGRTIYYADSVKGRFTISRDNAKNSLFLQMNSLRAEDTAVYYCARPSSIETLLRNQYHYGVDVWGQGTTVTVSS VL: not shown	no binding									no binding (tested: below 0.10 nm at 300 nM)			no binding
H1H17356N (antibody, V domains shown) VH: EVQLVESGGGLVQPGGSLRLSCAASGFTFSSYEMNWVRQAPGKGLEWVSYIGSSGRATYYADSVKGRFTISRDNAKNSLYLQMNSLRAEDTAVYYCARPSSIAALLRNQYHFGMDVWGQGTTVTVSS VL: not shown										no binding (tested: below 0.10 nm at 300 nM)			
H1H17162P (antibody, V domains shown) VH: EVQLVESGGGLVQPGGSLRLSCAASEFTFSSYAMSWVRQAPGKGLEWVSAISGSSGSTYYADSVKGRFTISRDNSKKTLYLQMNSLRVEDTAVYYCAKGGYPHSFDIWGHGTMVTVSS VL: DIQMTQSPSSLSASVGDRVTITCRASQSISSFLNWYQQKPGKAPKLLIYAASSLQSGVPSRFSGSGSGTDFTLTISSLQPEDFATYYCQQSYSSITFGQGTRLEIK		≤ 0.46	≤ 1e-05	21800	≥ 1160	0.288	≤ 1e-05	34700	≥ 1160	no binding (tested: below 0.10 nm at 300 nM)	0.3	0.3	no binding
H1H17161P (antibody, V domains shown, also called REGN H1H17161P) VH: EVQLVESGGGLVQPGGSLRLSCAASGFTSSSYAMNWVRQAPGKGLEWVSTISGMGGSTYYADSVKGRFTISRDNSKNTLYLQMNSLRAEDTAVYYCAKRGYPHSFDIWGQGTMVTVSS VL: not shown		≤ 0.189	≤ 1e-05	52900	≥ 1160	0.228	≤ 1e-05	43900	≥ 1160		0.2	0.2	no binding
H2aM17359N (antibody, V domains shown, also called HCAF12C06-26) VH: EVQLVESGGGLAQPGGSLRLSCAASGFTFSSHEMNWVRQAPGKGLEWVSYISRSGRIINYADSVKGRFTISRDNAKNSLYLQMNSLRAEDTAVYYCARERGSYYDILTGSQDYGMDVWGQGTTVTVSS VL: not shown	no binding	50.9	0.000195	3820	59.4	22.9	0.000352	15400	32.8		0.7	0.8	no binding
H1H17359N (antibody, V domains shown) VH: EVQLVESGGGLAQPGGSLRLSCAASGFTFSSHEMNWVRQAPGKGLEWVSYISRSGRIINYADSVKGRFTISRDNAKNSLYLQMNSLRAEDTAVYYCARERGSYYDILTGSQDYGMDVWGQGTTVTVSS VL: not shown										no binding (tested: below 0.10 nm at 300 nM)			
